Target: T1, COP1-His recombinant protein (Arabidopsis thaliana, UniProt P43254 1-675)
T1 sequence (looked up): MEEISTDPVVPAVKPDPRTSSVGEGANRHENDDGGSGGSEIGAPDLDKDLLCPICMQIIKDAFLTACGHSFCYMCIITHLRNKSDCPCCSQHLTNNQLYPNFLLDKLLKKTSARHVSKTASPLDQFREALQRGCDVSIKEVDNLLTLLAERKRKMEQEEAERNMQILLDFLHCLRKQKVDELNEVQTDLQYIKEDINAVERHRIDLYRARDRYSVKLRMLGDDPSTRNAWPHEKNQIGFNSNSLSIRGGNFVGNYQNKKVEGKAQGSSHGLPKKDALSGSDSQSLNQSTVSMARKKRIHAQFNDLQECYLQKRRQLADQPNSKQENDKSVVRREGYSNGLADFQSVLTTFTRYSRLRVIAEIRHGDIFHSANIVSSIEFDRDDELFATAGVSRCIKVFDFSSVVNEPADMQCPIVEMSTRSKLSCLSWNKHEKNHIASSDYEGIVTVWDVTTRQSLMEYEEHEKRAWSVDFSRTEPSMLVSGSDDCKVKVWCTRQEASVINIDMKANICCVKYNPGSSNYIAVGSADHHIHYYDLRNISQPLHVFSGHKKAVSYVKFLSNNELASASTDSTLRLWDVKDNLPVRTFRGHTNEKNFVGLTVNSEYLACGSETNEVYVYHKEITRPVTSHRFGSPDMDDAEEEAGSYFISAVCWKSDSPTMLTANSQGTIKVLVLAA
Assay: pull-down

B1: GST-HDA15 recombinant protein (enzyme, Arabidopsis thaliana, UniProt Q8GXJ1 1-552, looked up)
chain: MVVETIERSCEGSKRRHVNGGDIAVPCSGEECSNGDINVAPGVSAKRARVSREMTFEDIYGADALLNDDDDEDDDCDWEPVQAPMEFVKWCCVNCTMSNPGDMVHCCICGEHKESGILRHGYLASPFFKDTGLIEVEEKYGGSSSATSSTAVGFDERMLLHSEFEVKAQPHPERPDRLRAIAASLATAGVFPGRCLPINAREITKQELQMVHTSEHVDAVDTTSQLLYSYFTSDTYANEYSARAARLAAGLCADLATDIFTGRVKNGFALVRPPGHHAGVRHAMGFCLHNNAAVAALVAQAAGAKKVLIVDWDVHHGNGTQEIFEQNKSVLYISLHRHEGGNFYPGTGAADEVGSNGGEGYCVNVPWSCGGVGDKDYIFAFQHVVLPIASAFSPDFVIISAGFDAARGDPLGCCDVTPAGYSRMTQMLGDLCGGKMLVILEGGYNLRSISASATAVIKVLLGENPENELPIATTPSVAGLQTVLDVLNIQLEFWPSLAISYSKLLSELEARLIENKKNQMKRKVVRVPTWWKWGRKKLLYNFLSARMISRSK
B1: binds.

— publication doi:10.1101/2020.08.07.241737 (bioRxiv, 2020)
